Test: protease stability score; higher = more stable; yeast display proteolysis, trypsin and chymotrypsin;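 further: relative to predicted unfolded state with 0 unfolded-like and 1 meaning tenfold more protease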

First: DEELEMLRRFWEDLLHSAKTGDEELWERLADPNVRVIINGKLFHGRELASHALRELFERVDVIKDVKITDEKRQGDKIHLDIRVHNHYNGKFEDNDLHIVLVKVDGKWFLKSVEFR
Second: HDKEHLSEYLLDLTEYLIRTGDFKLMLKMADPHVRNHIIIGEFELEYHGWHVYIHWLEKVLRRFGVDHVHVTHRNAQGDKVEMDTHLEVNGRRHDVDQHWVYINGRIEHVRFRIR
The protease stability score of the first is higher: 2.12 for the first, 0.794 for the second.

Compared with “SEDEELRQIAVEFILHILWTGDEELLYKYFDPHVRSDINGRRTHGRENMLRAIREMMRKIKGIQLTSLHITDIEIIGDYLNIDGHFRLNYDGKETDLSLKIDIFKINGKWSIHAISYR”, “DEHEETMHWALEVIEEFLQTGDERLMEENLDPNVRLEYGDKILVGRELFLELLRRLVEKYKNIRINIHDIKLYDGRLYLDVELRYGDFRSTTRIFSEKYNGRWVDRSYHVE” is lower in protease stability score: 2.08 for the first, 1.71 for the second.

Compared with “DENEELLTDMIRLLKNVLETGDEEHFHRLADPHVRFKIGDKIFHGREEATRIFSEVMERFKNVRLRLEHIEIIGDKITIHTRIDVGDKSYEMHIHARKVNGKWIMETLFIR”, “SDEEEEVREYYEKWFHDVYTGDEDSFRDMLDPHVKVEINGKELHGRENAEKFEKRMGVDHLNIRRFHFWDGRLEIRGESEYGDKRFKTEIHAIKINGRWVVKLIRFE” is lower in protease stability score: 1.17 for the first, 0.761 for the second.

Compared with “DHEEHLSHIALRESMEYLETGDPRKYTELMDPNVKLRVDINGKQIEFHGREEASRFMEHVQHEIKGARIETHSEDTQGNKIHMDLKLLINGKESKLIIIALKINGRWLVTSMEVHVK”, “DEHDEMSQIASEILRTVIETGNENELERMVDPHVKSIVNGRTHHGRETLSELKKKLGWERVHNRIHHVEIVGDKVVVRGSIHWNGRDVRVEFIITKVDGRWIIEEIRFH” is lower in protease stability score: 1.88 for the first, 1.07 for the second.

Going from “DEDEHLARRLSTEVEKLMLTGDEHLIKRLLDPDARINVNGVDLHGRHHYITHLHRFLLEAGVDNVHSELTTWRVYGDYVHVHGTLHINGVRFNHHFLFEKVDGRWIIKWLDDR” to “DEEEEISRRIVKLLIELFETGDEEKWKELADPDARVDIDGVDSVGRKHAIHLLHEWKEQLGFKHHRIHSIHVYGEFIDVDGLLIVNGRKIRIHFHFIVVNGRLKEQRLHIE”, the protease stability score rises from 1.12 to 1.3.

Compared with “NELQYKILHALRLFVESLLTGDPTTIERLLDPDARNQWDGVHHVGMEEWSRFLEELRIQIHDLEFKHIEIVDGQLRVDGREDMIIDVNGVRTRTNRKLRLIIVKFDGRWRIESVKVE”, “SEEEESIRHSWEIFETVLKTGDWTDYEKLFDPNDRTEIGDKRLHGMDLLIHILRRLGIKHNHAEMRIRSFEMIGDKAIIDGEIHVVLDFNGREVRSSSEILIIDRKINGRWLVESMHVI” is lower in protease stability score: 1.22 for the first, 1.21 for the second.

First: DEVKEDTRRFFERIERALKTGDEDELKRMMDPHVQIHAENHEFHGREALRHFLERYDVVRDIKINDWRIINGRIQIDGEVEGVFNGRDKETHTIMILLKINGKWVITSLTIN
Second: HELEEEAKRAADIWFENLLTGDFDSLRKLVDPHVRMNYNGQEYHGWEEVIRFWKEYLDKVKNLQFHRHHVDVQGEKTTIDTRHIINGRSSEVEIRLLVINGRIQSNEVHEN
The protease stability score of the first is higher: 2.09 for the first, 1.14 for the second.

Compared with “NELHKEYRHMLHILRHIIETGNERALEENMDPNYRIEIGDKRIHGREKALEFWWRLNKRVDHLELHDEHINLFEGHVEIDGRLILKQGEYIEESKTTIFIVKVNGRWVLRSFRVE”, “DHEEEKAVEIARLLLEAELTGDWKTFSHLADPHTRWIERIDGREDSRHGMEEVVRIIIERLKEIRMEVRIRRKRVVGDKVELDGELIMRINGVEIRVEVRIIIIIVGDKVKFIEITIH” is lower in protease stability score: 1.86 for the first, 0.83 for the second.

Going from “DKDERMRNEAFKITEHLHHTGDWHTRSRLADPEVQLIIGDKEYHGRETASEVLHKYLKRLGVDHLELKHFEVKMFDGQLHIHLHIELHINGVIYEVHIHIVMEKINGRWVIKHERIEFR” to “SEEEELVRQWLERTTEALLTGDEEYVLHLADPRTRFDVGDKEIHGMEEFLKRHLQLRIHHMHWEVTEIRLIDGVARSTGTLEIIMQQGDKRFRVRIRSEVISEKIDGRWRLRSIKIH”, the protease stability score rises from 1.01 to 1.44.

Compared with “DSHRELLERFARLMLHLWLTGDEDELHKYMDPHVRYHQGEFHIHGREEVTRWASELHKKLGINHEDQERVNIYDGKNHVDTRLDINGRHLRVELRIDVWNGRIREVQVHHR”, “HEEEKLARTFSEVVERSLYTGDEDSLKRLMDPHVRMNVNGVRHIGMELAKEWLHRYIRQLGIDHSTIRHSHDEIQGEKVIVRLHGELVYNGVSREVELIIHVNKVNGVWTISELLVILK” is lower in protease stability score: 1.41 for the first, 1.25 for the second.

Compared with “SEEEDTMRHLLHLLIEWELTGDWKNWQKLADPRTRIEINGRELHGRETYAEFIREVLEQFKNLVIHDFIMHDVKVFDGRVIVDGYVDTEINGVRTHIRVEFILIVVNGKLRRVSRIVR”, “DEDKHQLDEATKVWLELFLTGNEEELLKLADPDVRIEVDGKHFHGREVMLKLMQEWKHRLGINVDELKRTEIEVIDGKAHVHLDGELYIDGKTFRLDIEVVYEKIDGRWRLKKVRFDIR” is higher in protease stability score: 1.57 for the first, 2.15 for the second.

First: DEDKESAERAFRILVHLWETGDEHKLERMHDPNTRYHQGDKDIHGMEKILERLSHIRIKDVKLRDIKYQGEKLEVDGEIEIEVDGRNLLLRTILFFDKVDGRWVIRSIEVR
Second: SESDEMAVEMLLRWVENLITGDEHTSQELLDPHVRIIFYIGDKEVHYHGWENAVEFWEEVVRRYDYFHIKFEEITVQGEKVRSKTRLTVIINGQEERYDTKLNAIVVNGRFKSVTIQYD
The protease stability score of the first is higher: 1.52 for the first, 0.876 for the second.

First: DEDKEDTDKMIEILIRVARTGDEDSLLHMLDPNVRIVVNGREEHGRDVAHRFLKEIRIHDMEVKRVEIIGNKVKIDGRVDGDFNGVRHKTETEIITEKINGKWVIRSIIFR
Second: DEDEHQSRHLAELIMRHIQTGDEEMIERLADPHARSNVNGVTDHGRNTMRWMKEFFKNLTLHIEDVRIVHIGNKVIVIIHLTVRFENREEHVIIIIISEKFDGRWWITEIEIRIK
The protease stability score of the first is higher: 2.1 for the first, 0.505 for the second.

First: DEEEQSERIALELLDKSINTGDERVWKEMFDPRVIMDINGVKLIGREDYRRWRERFDHEENRDFKIHHHEVQGNKVHLDVEIDLTLNFDGKRHRHIFRTEVDVIKFDGKWHIRSLIVK
Second: DEEHKETEDIAKYFWERFLTGDWKTFKEFADPHVKIDVDGVEHIGREEASKLMRDWDRRFKNVRHTERHHDVIDGKFELHGESNINGVHIKLDVRIVIVDGRLHSVHVEIDRR
The protease stability score of the first is lower: 1.18 for the first, 1.26 for the second.

Compared with “SEDEENIRRIIRRFVHTFETGDEDIMRELADPHVRLIFNGQHYIGREWVVEIMSEHVKRADHTEVHIHEIHIIGDKVKVHSRLHINVDGVFRNIELRIDIMKVNGRWLIHHVEFR”, “DEEEEIFRHLFKLFVDATETGDEHILKELLDPHTRIHVNGQDFHGRENAIHFWRHMRIDEIRLKEIEVQGDKIHITGHVRGQIDGQQVRTDFELIMVKIDGRWKIHSEIYH” is higher in protease stability score: 1.48 for the first, 2 for the second.

Going from “DEERHHFERVYEELMHVRRTGDWERYWELLDPDARLEINGQKYHGREDVLKAVTDIMRHWREKEFDFKRMDVQGDKVKIEGRVNGNFNGRDINTDVEIQITVVDGRLRHERFIIK” to “DEIEKSVKHHDQVFRTAIETGDEHELEHLADPNVRWDINGVDLHGRELYLKIVLEIRMRIELRVRDVRWQGNYIIVISEVDSHHHINGVETRDRSDAHLIIFKVNGRWELKESRRH”, the protease stability score falls from 1.71 to 1.35.

Going from “SEEEEESRRFMQHMSRSLATGDWRQVRNLLDPHVRTDINGRDLHGWRDYVRHVLELGIKHIHIEDIRLVGDYAHIDGEMDVNGRDVRVHILVLKINGRWVIESEELK” to “EEHHEITKDLIELLERTMKTGDEDILRKMADPHTKVEQGDKRIIGRDEFQEEWVEWMRRVDHAEVRLTDFREFPNHLELHGTLDVNINGRDIRIEIQIIVSKFDGRWSLHSISFR”, the protease stability score falls from 0.427 to 0.107.

Compared with “SEEEQSARKVIEDLIRDLVTGDEKSLRRLMDPHVRFDIGDKELIGREEVLEFWRHIRIHDIKLEDVRLIDGRATVEGKLNGEINGVHHRLDEHIFIYKVDGRWVVHEIRII”, “DHREELLHRIYELWEMVQTTGDFEKLTDLLDPDVYVNINGRNLIGRELRIRFMREIRMEIKHYKHERFHFQGDKAHIHGRLDREINIGDKHHREDITIDVHLFVIDGVIRSFEIRLI” is lower in protease stability score: 1.53 for the first, 1.33 for the second.

First: DDEERIASFVIKMWLHSYLTGDENLLREFLDPNVKVRNEVNGRDWTHHGREALLWLLEFLGVKHVEHVRLHDLLVVNGRATSREIYHGKIGDKRTTFHFTLYIIRIDGVVKKFEIELE
Second: SEDDELVTRMFKVWLHDWITGNEEQIHRMVDPDYRLEIGDKDIHGMEASLHWLRKIKNIQFRFHLEHVDVVNGKAKSEGRYIEEFEGVKIDRDVELYLHIVDGRIKSMSIHKR
The protease stability score of the first is higher: 1.3 for the first, 1.29 for the second.

Going from “SELEEAVRRWLELFFKLFWTGNEEILTDLFDPNVRLEVGDKVFIGREEVSRHLREFRERVKNLRMHVHDVKLINGVVHMDIEIDINGVRTKAHTDWIVIDGRHHSQIIKIN” to “SEEKKHVEEVARHILHLFLTGDEELWSNMADPNMRYLWNGREIVGRDLVREQNKELRTHSIEITHIEVFDGRARVRVNVDYQIGDKRINTHSLVIIVIINGRIESVFIKHD”, the protease stability score rises from 0.525 to 1.27.

First: DEESRLIEEFIKKVTHALRTGDEHRMHHLLDPHVRFYIGDKFLIGRENMAHLIRWLIEHLGVDHTHLESSSIINGKSFLDTRMHVDGQEIEVRFIIVLFDGVVNRVHYQIE
Second: TEEERIMLEAIDLLIELWRTGDWKLLDEMVDPRVRIEIGEFTHHGREEYLRILLEEVRRADHRRYHIDHLEIINGRVILNGFIDLTFNGVHLRIREHLVAEKVNGRWLLREIRQR
The protease stability score of the first is lower: 1.1 for the first, 1.72 for the second.

Going from “SEEDEHMRRLVEIIIHNWHTGDEEKLANMMDPNAKSNINGVELIGRDLITSFLKEELKRLGVKHVHDTEIHLQGNKSIIHSRVHVNGVDIEMEIIIIIIDGVIKEVEWRRR” to “SEEEEWAHELMRLLIEFNETGDEHELHNLIDPNVRIVIGEYTIIGREIAIEWTRQARIKRVHIEDYRFQGDKLHVDSRSNGKYGDKEDTLKVEIIVEKINGKWVVREVRVK”, the protease stability score rises from 1.96 to 2.06.

Going from “TEDEEFAFEIIRLFHEALLTGDEETLHHLVDPNARMQIGEFTTHGRSMVKFFNKRFDHWEMRVEFRRIHYIGDKVFVDTRIRILIEYNGRFIETSVEQRIVTRKIDGKWQITRLEIV” to “DDMEEMAKEVFREWFEIVETGDEEKLLKLIDPNTRVDINGQEVHGREDISRITSKLIRELGVKHIRSEVKSFDIVGNKIRVRGLEIRDVGDKHKEIHTHFFIMKIDGKWVITNMHFH”, the protease stability score rises from 1.05 to 1.5.

Going from “STEEREVYEWVHELLNAFNTGDEDFYYERMDPHVRFESQFNGKELDIVGREKVLKWTKTFWDDLGVDHSKLRSFRIQGDKLILHMEVTINGRHIQVDFFHVIVDGKLHSEEIRIH” to “DEHEEFLHRWAEQFLKNMITGDFDRLHELLDPHVRWRIGDKDSIGWKTIIDVVKDLLREIRIEDVTLHRIEVQGDKSIIVITTIVEIDGRRYRTTVIIRMRIIDGRLKSVDVEER”, the protease stability score rises from 0.649 to 1.31.

First: SEEDKLMRDIERLVLEWLETGDEDALKKMLDPHVRVEFNGVERIGMDELARLLKHLRFDHIHIRNSRVINGVIHIDGHIDGTINGRRVRHDLEVRIIIVNGRFKEIILIDR
Second: SEIQDISDLAFELIWRSLNTGDEHMLLELLDPDARTHVNGKTFHGRESAVHLFRYLLTLMGIDHIHIEDFKIEFQGDKVIIRMTTRSHQGDKEFHTRFLIIVRKVDGRWINEEISIHVE
The protease stability score of the first is higher: 1.21 for the first, 0.937 for the second.

From the NTF2 design screens of Basanta et al. (2020)
